{"source": "IntAct's records for PubMed 21743457", "parents": {"B1": {"name": "Cell division control protein 13 (Saccharomyces cerevisiae), P32797 (parent)", "chain": "MDTLEEPECPPHKNRIFVSSSKDFEGYPSKAIVPVQFVALLTSIHLTETKCLLGFSNFERRGDQSQEDQYLIKLKFKDRGSERLARITISLLCQYFDIELPDLDSDSGASPTVILRDIHLERLCFSSCKALYVSKHGNYTLFLEDIKPLDLVSVISTISTKSTNSSKHSSSELISECDLNNSLVDIFNNLIEMNRDEKNRFKFVKLIHYDIELKKFVQDQQKVLSQKSKAAAINPFFVPNRLGIPYIESQNEFNSQLMTLNVDEPTTDISNMGEEMHDSADPIEDSDSSTTSSTGKYFSSKSYIQSQTPERKTSVPNNWHDDDSGSKRKRKLSFHSPNASSIRKAISYEQLSLASVGSVERLEGKIVGMNPPQFASINEFKYCTLKLYFTQLLPNVPDKVLVPGVNCIEIVIPTRERICELFGVLNCQSDKISDILLLEKPDRISVEVERILWDNDKTASPGMAVWSLKNISTDTQAQAQVQVPAQSSASIDPSRTRMSKMARKDPTIEFCQLGLDTFETKYITMFGMLVSCSFDKPAFISFVFSDFTKNDIVQNYLYDRYLIDYENKLELNEGFKAIMYKNQFETFDSKLRKIFNNGLRDLQNGRDENLSQYGIVCKMNIKVKMYNGKLNAIVRECEPVPHSQISSIASPSQCEHLRLFYQRAFKRIGESAISRYFEEYRRFFPIHRNGSHLAKLRFDEVKHEPKKSPTTPALAEHIPDLNADVSSFDVKFTDISSLLDSSARLPRPQQTHKSNTLYSCEGRIIAIEYHASDLCFHITNELPLLQTRGLAPERVLQLHIITSKNFAYFFNRSSAYLQRQPLEEKYTQLAQFLGHSFKFNITSSLTLFPDTTVALQIWCPIECTFRELQQQLAHPKVAAAPDSGSLDCAINATVNPLRLLAAQNGVTVKKEEDNDDDAGAVPTS", "partner": "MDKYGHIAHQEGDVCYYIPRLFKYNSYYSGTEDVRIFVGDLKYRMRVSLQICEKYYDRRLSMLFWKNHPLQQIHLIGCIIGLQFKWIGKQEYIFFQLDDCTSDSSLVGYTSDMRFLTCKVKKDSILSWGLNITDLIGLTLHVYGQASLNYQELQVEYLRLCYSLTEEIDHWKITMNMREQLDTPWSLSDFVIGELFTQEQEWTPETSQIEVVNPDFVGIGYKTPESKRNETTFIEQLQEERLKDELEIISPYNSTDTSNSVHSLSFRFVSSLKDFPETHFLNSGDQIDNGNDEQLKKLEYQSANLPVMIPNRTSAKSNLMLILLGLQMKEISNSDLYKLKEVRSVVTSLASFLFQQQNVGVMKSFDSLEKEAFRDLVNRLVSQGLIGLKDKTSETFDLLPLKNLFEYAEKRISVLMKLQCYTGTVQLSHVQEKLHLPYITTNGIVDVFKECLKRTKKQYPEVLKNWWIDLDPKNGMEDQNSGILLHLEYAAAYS"}, "B2": {"name": "Cell division control protein 13 (Saccharomyces cerevisiae), P32797 (parent)", "chain": "B1 chain"}}}
{"variants_of": "B1", "conditions": "with stn1_yeast STN1, P38960"}
{"variant": "K909R", "effect of a mutation on the interaction": "decreasing interaction"}
{"variants_of": "B2", "conditions": "with smt3_yeast SMT3, Q12306"}
{"variant": "K909R", "effect of a mutation on the interaction": "disrupting interaction"}
